Square brackets hold non-standard residues; d marks the D form. Ends that are not written are not given here. 1Nal = N[C@@H](Cc1cccc2ccccc12)C(=O)O; 2Nal = N[C@@H](Cc1ccc2ccccc2c1)C(=O)O; Nle = CCCC[C@H](N)C(=O)O; Abu = CC[C@H](N)C(=O)O
B1: Analog 83 (peptide)
peptide: A[dE]FFKLGPNGYVYLHSA-NH2
modifications: N-terminus assumed
SMILES: CC(C)C[C@H](NC(=O)[C@H](CCCCN)NC(=O)[C@H](Cc1ccccc1)NC(=O)[C@H](Cc1ccccc1)NC(=O)[C@@H](CCC(=O)O)NC(=O)[C@H](C)N)C(=O)NCC(=O)N1CCC[C@H]1C(=O)N[C@@H](CC(N)=O)C(=O)NCC(=O)N[C@@H](Cc1ccc(O)cc1)C(=O)N[C@H](C(=O)N[C@@H](Cc1ccc(O)cc1)C(=O)N[C@@H](CC(C)C)C(=O)N[C@@H](Cc1c[nH]cn1)C(=O)N[C@@H](CO)C(=O)N[C@@H](C)C(N)=O)C(C)C
B2: Peptide 9 (synthetic peptide of clone 9) (peptide)
peptide: AEFFKLGPNGYVYLHSA-NH2
notes: also called analogs 62-64
B3: Analog 89 (peptide)
peptide: AEFFKLGP[dN]GYVYLHSA-NH2
modifications: N-terminus assumed
SMILES: CC(C)C[C@H](NC(=O)[C@H](CCCCN)NC(=O)[C@H](Cc1ccccc1)NC(=O)[C@H](Cc1ccccc1)NC(=O)[C@H](CCC(=O)O)NC(=O)[C@H](C)N)C(=O)NCC(=O)N1CCC[C@H]1C(=O)N[C@H](CC(N)=O)C(=O)NCC(=O)N[C@@H](Cc1ccc(O)cc1)C(=O)N[C@H](C(=O)N[C@@H](Cc1ccc(O)cc1)C(=O)N[C@@H](CC(C)C)C(=O)N[C@@H](Cc1c[nH]cn1)C(=O)N[C@@H](CO)C(=O)N[C@@H](C)C(N)=O)C(C)C
B4: Analog 35 (peptide)
peptide: AEST[1Nal]HHLSLGYMYTLN-NH2
modifications: N-terminus assumed
SMILES: CSCC[C@H](NC(=O)[C@H](Cc1ccc(O)cc1)NC(=O)CNC(=O)[C@H](CC(C)C)NC(=O)[C@H](CO)NC(=O)[C@H](CC(C)C)NC(=O)[C@H](Cc1c[nH]cn1)NC(=O)[C@H](Cc1c[nH]cn1)NC(=O)[C@H](Cc1cccc2ccccc12)NC(=O)[C@@H](NC(=O)[C@H](CO)NC(=O)[C@H](CCC(=O)O)NC(=O)[C@H](C)N)[C@@H](C)O)C(=O)N[C@@H](Cc1ccc(O)cc1)C(=O)N[C@H](C(=O)N[C@@H](CC(C)C)C(=O)N[C@@H](CC(N)=O)C(N)=O)[C@@H](C)O
B5: Analog 60 (peptide)
peptide: AESTYHHLSLGYMYT[dL]N-NH2
modifications: N-terminus assumed
SMILES: CSCC[C@H](NC(=O)[C@H](Cc1ccc(O)cc1)NC(=O)CNC(=O)[C@H](CC(C)C)NC(=O)[C@H](CO)NC(=O)[C@H](CC(C)C)NC(=O)[C@H](Cc1c[nH]cn1)NC(=O)[C@H](Cc1c[nH]cn1)NC(=O)[C@H](Cc1ccc(O)cc1)NC(=O)[C@@H](NC(=O)[C@H](CO)NC(=O)[C@H](CCC(=O)O)NC(=O)[C@H](C)N)[C@@H](C)O)C(=O)N[C@@H](Cc1ccc(O)cc1)C(=O)N[C@H](C(=O)N[C@H](CC(C)C)C(=O)N[C@@H](CC(N)=O)C(N)=O)[C@@H](C)O
B6: Analog 54 (peptide)
peptide: AESTYHHL[dS]LGYMYTLN-NH2
modifications: N-terminus assumed
SMILES: CSCC[C@H](NC(=O)[C@H](Cc1ccc(O)cc1)NC(=O)CNC(=O)[C@H](CC(C)C)NC(=O)[C@@H](CO)NC(=O)[C@H](CC(C)C)NC(=O)[C@H](Cc1c[nH]cn1)NC(=O)[C@H](Cc1c[nH]cn1)NC(=O)[C@H](Cc1ccc(O)cc1)NC(=O)[C@@H](NC(=O)[C@H](CO)NC(=O)[C@H](CCC(=O)O)NC(=O)[C@H](C)N)[C@@H](C)O)C(=O)N[C@@H](Cc1ccc(O)cc1)C(=O)N[C@H](C(=O)N[C@@H](CC(C)C)C(=O)N[C@@H](CC(N)=O)C(N)=O)[C@@H](C)O
B7: Peptide 25 (synthetic peptide of clone 25) (peptide)
peptide: AESTYHHLSLGYMYTLN-NH2
notes: also called clone 25 peptide; analogs 3 and 4
B8: Analog 34 (peptide)
peptide: AESTFHHLSLGYMYTLN-NH2
B9: Analog 43 (peptide)
peptide: AESTYHHLSLGYVYTLN-NH2
B10: Analog 44 (peptide)
peptide: AESTYHHLSLGY[Nle]YTLN-NH2
modifications: N-terminus assumed
SMILES: CCCC[C@H](NC(=O)[C@H](Cc1ccc(O)cc1)NC(=O)CNC(=O)[C@H](CC(C)C)NC(=O)[C@H](CO)NC(=O)[C@H](CC(C)C)NC(=O)[C@H](Cc1c[nH]cn1)NC(=O)[C@H](Cc1c[nH]cn1)NC(=O)[C@H](Cc1ccc(O)cc1)NC(=O)[C@@H](NC(=O)[C@H](CO)NC(=O)[C@H](CCC(=O)O)NC(=O)[C@H](C)N)[C@@H](C)O)C(=O)N[C@@H](Cc1ccc(O)cc1)C(=O)N[C@H](C(=O)N[C@@H](CC(C)C)C(=O)N[C@@H](CC(N)=O)C(N)=O)[C@@H](C)O
B11: Analog 61 (peptide)
peptide: AESTYHHLSLGYMYTL[dN]-NH2
modifications: N-terminus assumed
SMILES: CSCC[C@H](NC(=O)[C@H](Cc1ccc(O)cc1)NC(=O)CNC(=O)[C@H](CC(C)C)NC(=O)[C@H](CO)NC(=O)[C@H](CC(C)C)NC(=O)[C@H](Cc1c[nH]cn1)NC(=O)[C@H](Cc1c[nH]cn1)NC(=O)[C@H](Cc1ccc(O)cc1)NC(=O)[C@@H](NC(=O)[C@H](CO)NC(=O)[C@H](CCC(=O)O)NC(=O)[C@H](C)N)[C@@H](C)O)C(=O)N[C@@H](Cc1ccc(O)cc1)C(=O)N[C@H](C(=O)N[C@@H](CC(C)C)C(=O)N[C@H](CC(N)=O)C(N)=O)[C@@H](C)O
B12: Analog 36 (peptide)
peptide: AEST[2Nal]HHLSLGYMYTLN-NH2
modifications: N-terminus assumed
SMILES: CSCC[C@H](NC(=O)[C@H](Cc1ccc(O)cc1)NC(=O)CNC(=O)[C@H](CC(C)C)NC(=O)[C@H](CO)NC(=O)[C@H](CC(C)C)NC(=O)[C@H](Cc1c[nH]cn1)NC(=O)[C@H](Cc1c[nH]cn1)NC(=O)[C@H](Cc1ccc2ccccc2c1)NC(=O)[C@@H](NC(=O)[C@H](CO)NC(=O)[C@H](CCC(=O)O)NC(=O)[C@H](C)N)[C@@H](C)O)C(=O)N[C@@H](Cc1ccc(O)cc1)C(=O)N[C@H](C(=O)N[C@@H](CC(C)C)C(=O)N[C@@H](CC(N)=O)C(N)=O)[C@@H](C)O
B13: Analog 46 (peptide)
peptide: [dA]ESTYHHLSLGYMYTLN-NH2
modifications: N-terminus assumed
SMILES: CSCC[C@H](NC(=O)[C@H](Cc1ccc(O)cc1)NC(=O)CNC(=O)[C@H](CC(C)C)NC(=O)[C@H](CO)NC(=O)[C@H](CC(C)C)NC(=O)[C@H](Cc1c[nH]cn1)NC(=O)[C@H](Cc1c[nH]cn1)NC(=O)[C@H](Cc1ccc(O)cc1)NC(=O)[C@@H](NC(=O)[C@H](CO)NC(=O)[C@H](CCC(=O)O)NC(=O)[C@@H](C)N)[C@@H](C)O)C(=O)N[C@@H](Cc1ccc(O)cc1)C(=O)N[C@H](C(=O)N[C@@H](CC(C)C)C(=O)N[C@@H](CC(N)=O)C(N)=O)[C@@H](C)O
B14: Analog 55 (peptide)
peptide: AESTYHHLS[dL]GYMYTLN-NH2
modifications: N-terminus assumed
SMILES: CSCC[C@H](NC(=O)[C@H](Cc1ccc(O)cc1)NC(=O)CNC(=O)[C@@H](CC(C)C)NC(=O)[C@H](CO)NC(=O)[C@H](CC(C)C)NC(=O)[C@H](Cc1c[nH]cn1)NC(=O)[C@H](Cc1c[nH]cn1)NC(=O)[C@H](Cc1ccc(O)cc1)NC(=O)[C@@H](NC(=O)[C@H](CO)NC(=O)[C@H](CCC(=O)O)NC(=O)[C@H](C)N)[C@@H](C)O)C(=O)N[C@@H](Cc1ccc(O)cc1)C(=O)N[C@H](C(=O)N[C@@H](CC(C)C)C(=O)N[C@@H](CC(N)=O)C(N)=O)[C@@H](C)O
B15: Analog 45 (peptide)
peptide: AESTYHHLSLGY[Abu]YTLN-NH2
modifications: N-terminus assumed
SMILES: CC[C@H](NC(=O)[C@H](Cc1ccc(O)cc1)NC(=O)CNC(=O)[C@H](CC(C)C)NC(=O)[C@H](CO)NC(=O)[C@H](CC(C)C)NC(=O)[C@H](Cc1c[nH]cn1)NC(=O)[C@H](Cc1c[nH]cn1)NC(=O)[C@H](Cc1ccc(O)cc1)NC(=O)[C@@H](NC(=O)[C@H](CO)NC(=O)[C@H](CCC(=O)O)NC(=O)[C@H](C)N)[C@@H](C)O)C(=O)N[C@@H](Cc1ccc(O)cc1)C(=O)N[C@H](C(=O)N[C@@H](CC(C)C)C(=O)N[C@@H](CC(N)=O)C(N)=O)[C@@H](C)O
notes: T0004 prints Y there, as in peptide 25; Y is used
B16: Analog 47 (peptide)
peptide: A[dE]STYHHLSLGYMYTLN-NH2
modifications: N-terminus assumed
SMILES: CSCC[C@H](NC(=O)[C@H](Cc1ccc(O)cc1)NC(=O)CNC(=O)[C@H](CC(C)C)NC(=O)[C@H](CO)NC(=O)[C@H](CC(C)C)NC(=O)[C@H](Cc1c[nH]cn1)NC(=O)[C@H](Cc1c[nH]cn1)NC(=O)[C@H](Cc1ccc(O)cc1)NC(=O)[C@@H](NC(=O)[C@H](CO)NC(=O)[C@@H](CCC(=O)O)NC(=O)[C@H](C)N)[C@@H](C)O)C(=O)N[C@@H](Cc1ccc(O)cc1)C(=O)N[C@H](C(=O)N[C@@H](CC(C)C)C(=O)N[C@@H](CC(N)=O)C(N)=O)[C@@H](C)O

target: T1, Soluble recombinant human urokinase receptor (suPAR) (human, UniProt Q03405 23-299, limits assumed, biotinylated in the plate assays (sites not given)); experiment: competition with phage displaying peptide 9 for soluble uPAR
T1 construct: Only called a soluble truncated form of the urokinase receptor; also called soluble uPAR; biotinylated suPAR
T1 sequence (Q03405 23-299 limits assumed): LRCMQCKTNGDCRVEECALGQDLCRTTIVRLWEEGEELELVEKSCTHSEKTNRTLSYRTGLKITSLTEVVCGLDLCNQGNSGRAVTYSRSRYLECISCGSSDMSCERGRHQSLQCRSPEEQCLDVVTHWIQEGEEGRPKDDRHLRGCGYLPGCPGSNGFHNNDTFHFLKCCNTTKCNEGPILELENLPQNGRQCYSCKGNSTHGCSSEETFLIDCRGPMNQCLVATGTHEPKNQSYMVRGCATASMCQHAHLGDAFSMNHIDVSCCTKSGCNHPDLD
Procedure: (§1) The final anti-M13 conjugate dilution was 1:4000.
(§2) These concentrations were calculated based on the synthesis reactions.

% Inhibition at 2.5 uM	% Inhibition at 5 uM	Binder
44%	59%	B1
59%	71%	B2
15%	13%	B3

target: T1, Soluble recombinant human urokinase …; experiment: competition with phage displaying peptide 25 for soluble uPAR
Procedure: as §1, §2

% Inhibition at 2.5 uM	% Inhibition at 5 uM	Binder
70%	94%	B4
22%	75%	B5
73%	86%	B6
45%	59%	B7
38%	47%	B8
63%	82%	B9
–	91%	B10
32%	55%	B11
61%	78%	B12
41%	57%	B13
56%	80%	B14
31%	59%	B15
35%	61%	B16
